# Source: a protein production outcome set (Wang et al. 2014)
# Test: label from the status in PepcDB records
# 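Note: failed if final PepcDB status was selected cloned or expressed and not failed if soluble or beyond.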
row,Sequence,protein production
1,MSVEKKVNDLLQKMTIEEKVYQLTSILIQDILENDKFSPQKAKEKIPHGIGQITRLAGASNLSPQEAAKTANEIQKFLIENTRLGIPAMIHEESCSGFMAKGATVFPQSIGVACTFDNEIVEELAKVIRTQMKAVGAHQALAPLIDVARDARWGRVEETFGEDPYLVANMAVSYVKGLQGDDIKKGIVATGKHFVGYAMSEGGMNWAPVHIPERELREVYLYPFEVAVKVAGLKSIMPAYHEIDGIPCHANRKLLTDIARNEWGFDGIYVSDYSGVRNLLDYHKSVKTYEEAAALSLWAGLDIELPKIECFTEEFIKALKEGKFDMTLVDAAVKRVLEMKFRLGLFDNPYIKTDGIVELFDNKEQRQLSRRVAQESMVLLKNDNFLPLSKDSKKIAVIGPNANSVRNLLGDYSYPAHIATLEMFFIKEDKGVGNEEEFVRNVINMKSIFEAIKDKVSSNTEVVYAKGCDVNSQDRSGFEEAKKAAADADAVILVVGDKAGLRLDCTSGESRDRASLRLPGVQEDLVKEIVSVNPNTVVVLVNGRPVALDWIMENVKAVLEAWFPGEEGANAVADVLFGDYNPGGKLAISFPRDVGQVPVYYGHKPSGGKSCWHGDYVEMSTKPLLPFGYGLSYTTFEYKNFAIEKEKIGMDESIKISVEIENTGKYEGDEIVQLYTRKEEYLVTRPVKELKGYKRVHLKPGEKKKVVFELYPDLFAFYDYDMNRVVTPGVVEVMIGASSEDIKFTGTFEIVGSKKDAKELKHYFSKVWCE,failed
2,MSVGTSSAPGARQVPRPLAPRTSGDPADLGIDPDQLPDGLVVADEHGRVVCFNAAAVRITATPAAEALGQLLESALPLEDLEGRRWWQLTDPYGGLAIRVRQPERNLLLPGGREVLVTARYVRAERLGPVHRVVVTLRDTEARRRTERSHAELIATVAHELRSPLTSVKGFTATLLAKWERFTDDQKRLMLETVDADADRVTRLIAELLDISRIDSGRLEVRRQPVDIGAAVGRHIQAYVASGLEADRFLLRLAQPLPDLWADPDKVDQVLSNLLENAVRHGEGTVTIDVTPTASPREGEDTGTSVTVSDEGAGIPEESMNRVFTRFWRGSKRGGTGLGLYIVKGIVEAHGGTITVGRAPGGGAEFRFTLPVAAPAYLT,failed
3,MSVKAYLELIRVHNVVGSAVSAFMGYVIATTWKFTPLFFLPLLVVSLIAAGGYVINDVYDIEVDKINKPERPLPSGRIAVNIARRFSIVLFAVGLIISIPLGLIPFGFALITIVLLYEYARSLKKLGLVGNFIVALTSALSAYYGGLASGSLLGNFIIPTIYIFFFTLSREFVKGIEDIEGDKRNGVNTLAVKLGEKSTWIIAKIILGILIFTSPLPYFLGFNVIYLIGILALDVLLVYILILHNTIESATKARSLMKIYAIGTLIVFTLGSLRI,failed
4,MSVKMKKCSREDLQTLQQLSIETFNDTFKEQNSPENMKAYLESAFNTEQLEKELSNMSSQFFFIYFDHEIAGYVKVNIDDAQSEEMGAESLEIERIYIKNSFQKHGLGKHLLNKAIEIALERNKKNIWLGVWEKNENAIAFYKKMGFVQTGAHSFYMGDEEQTDLIMAKTLILEHHHHHH,not failed
5,MSVKVMKRLGTLLLLVCVLIILIPQSASAHAYVVKSNPTENETLKKAPSVVKIEFDEDIQVSRFNTLYVRDTSGKRVDLKDAHIDKKNKKLLEAGLKENLKNGLYSIQWKAISADGHPIQGVIPFRIGLAEAETDDVQVEEMGYVPQIDMIMERGILYTSFSLFIGVLFFNLIMYKGNATSVRSRSKNIIWISLFGILISLLFNLPLQAKINADVSWLEAFNPLLLKETLQLSVFGYVWITQMVLISTLIIVTYFAVKHEKFSSFKVWSIPILLFIGLLVMKAFNSHAYGLKFKDIAVVMDFLHLFAASLWVGGLSSIILLLRNEDNKWHMYWDMIKRFSPWATGAVIVILITGLFNSTFFIPTIHSLFDTKYGLVLLTKILLFIFMGILGIIHYVKGRMRAQQGLGATVKVEFIIGIIIFVIVAFMTNVQTPPMPPTGPFTESKQLDNGYEMTLNVSPNRVGQNIFHITLKDENGQPVTDMEQIILTTQSLDMNMGKGSFKVSAVSPGEYEAEGMYINMTGNWNIQVHGLTKSLDSFDTDYKFIVGGR,failed
6,MSVLAIIFLLNLKPTIYSIVGIFLIIILDVTVAVALYFLLRPVSKNISMLMSLFRIVYAAIFTTALYKIHDLTAFYSILDLGYIFFGIHLFLLGFLVYKSGYMPKWLGALIFIASTGYIIDPLLRFSGYAVEIGMYTFFGEVLFAFWLVIKGRKLSEVVSTP,failed
7,MSVLQGFEEVNMTAPRGKLSMLVTKDVVRFNKATAIALGYPAYVKVLINDKTKQFAVKPCKQSDANAVKFSKPEGKQTASVNIKDVMVLDSVLKYFKLDEPQDGQVTFQSMQGTFYPEERVAMFSVADAKAGVMKKRGRKKSESEEA,failed
8,MSVNMDELRHQVMINQFVLAAGCAADQAKQLLQAAHWQFETALSTFFQETNIPNSHHHH,not failed
9,MSVNTNEGSKNLWKDLPLELLSSVMTFLEIKDNVRASVVCKSWFEAAVSVRVIDKSPWLMYFPETKNTYDFYDPSNCKKYTMELPKSLVGFIVRYSKDGWLLMSQEDSSHFVLFNPFTMDVVALPFLHLFTYYQLVGFSSAPTSSECVVFTIKDYDPGHVTIRTWSPGQTMWTSMQVESQFLDVDHNNVVFSNGVFYCLNQRNHVAVFDPSLRTWNVLDVPPPRCPDDKSWNEGKFMVGYKGDILVIRTYENKDPLVFKLDLTRGIWEEKDTLGSLTIFVSRKSCESRTYVKDGMLRNSVYFPELCYNEKQSVVYSFDEGRYHLREHDLDWGKQLSSDNIWIEPPKNAFELV,failed
10,MSVPTTMFRLTGRDYPPAKLSHASLIIIDAQKEYLSGPLKLSGMDEAVANIARLLDAARKSGRPIIHVRHLGTVGGRFDPQGPAGQFIPGLEPLEGEIVIEKRMPNAFKNTKLHETLQELGHLDLIVCGFMSHSSVSTTVRRAKDYGYRCTLVEDASATRDLAFKDGVIPAAQIHQCEMAVMADNFACVAPTASLI,not failed
11,MSVQLKCDAVNCVYNRSHLCSAEEIEVQGGETTGGDATFCGTFSSKSLGNFVSSLGNMNYSGSLKQAVSAEPIMDPKVHCNAVNCTYNDQRYCHADQVEIRNEVSHTAEETECQTFYPKMSLEHHHHHH,failed
12,MSVQTIERLQDYLLPEWVSIFDIADFSGRMLRIRGDIRPALLRLASRLAELLNESPGPRPWYPHVASHMRRRVNPPPETWLALGPEKRGYKSYAHSGVFIGGRGLSVRFILKDEAIEERKNLGRWMSRSGPAFEQWKKKVGDLRDFGPVHDDPMADPPKVEWDPRVFGERLGSLKSASLDIGFRVTFDTSLAGIVKTIRTFDLLYAEAEKGS,not failed
13,MSVSGQPVLRAAVVTLQGRREDNQDFAAIAEPSPRDAAARGFVAAVADGIGGARGGRVAAEVSVRSFMEAYYGLSETLGMQQLLDRCLGSANRWVHAMGRLDPELAHMGTTFSGLIFRGRRAYLVHVGDSRIYRLRGDEPELLTSDHTLSGPGLDHVLYRAVGLDPGLRIDYSVYPLEPHDRFLLCSDGLHGSLQQEQIREILQERATPETTAEALARLAFEQGSQDNITALVVDVIALPPAEKQSLRLAIESLPLLDLPEVGDEVDGFRLERLLSSGRYSALFLAADTLGQDKPVVVKFPHPRVASEREYYDAFVREAWIGARVKSPWVGEILEQTPGRQSRLYSVMPFYPGASLEHELARRPRIGLEAGIDLALKLCKAVHALHRQQIVHRDIKPDNVLLDPEGGLKLLDLGIARLPAWDEDQADPIPGTPSYMAPEMFQGERGSIATDVFALGVTLYRTFAGGAYPYGEVEPFSTPRFGSPRPLTAHRPDLPAWLDAVLARAIAADPAQRPADAVELAYELEAGLEKGGGRRPPRRPLPLYERNPLQFWKAVAALLLALLAMAGLRLSLSCRPPSEAASRNNPLIHDNGDSR,failed
